Patent US6777176 (ARPIDA, dated 2004)

Molecular target: T1, enzyme I (phosphoenolpyruvate-protein-phosphatase, EC 2.7.3.9) of the bacterial phosphotransferase system (E. coli, UniProt P08839 1-575)
Test: cell-based or functional assay

Q: With WHKR [peptide 13] as the binder, how does the “inhibition IC50 (µM) of in vitro phosphotransferase activity” value (“inhibition IC50 (µM)” below) read?
A: 500 µM

Q: How did the “inhibition IC50 (µM)” value turn out when KKWHKRKK [peptide 8] was run?
A: 375 µM

Q: What about the “uncoupling P1/peptide (x IC50/h)” value of the same binder?
A: 64.2 x IC50/h

Q: KKFHIRKR [peptide 9] was tested. Which “inhibition IC50 (µM)” value did it give?
A: 1200 µM

Q: What about the “uncoupling P1/peptide (x IC50/h)” value of the same binder?
A: 132 x IC50/h

Q: SGRKSTRVHHWLLVL [peptide 15] was tested. Which “inhibition IC50 (µM)” value did it give?
A: 1380 µM

Q: With GLRFGKTRVHYLVLG [peptide 14] as the binder, how does the “inhibition IC50 (µM)” value read?
A: 650 µM

Q: How did the “inhibition IC50 (µM)” value turn out when KKFHLRK [peptide 1] was run?
A: 25 µM

Q: And the “uncoupling P1/peptide (x IC50/h)” value?
A: 3.2 x IC50/h

Q: Which “inhibition IC50 (µM)” value does the source give for KKFALRK [peptide 2] here?
A: 60 µM

Q: What about the “uncoupling P1/peptide (x IC50/h)” value of the same binder?
A: 6.6 x IC50/h

Q: How did the “inhibition IC50 (µM)” value turn out when WHKR [peptide 12] was run?
A: 410 µM

Molecular target: T1, enzyme I …
Test: cell-based or functional assay
Remark: another data set of the same source

Q: With MRLLKTLCFGLCG [peptide 31] as the binder, how does the “inhibition IC50” value read?
A: 4900 µM

Q: How did the “inhibition IC50” value turn out when RHITLF [peptide 28] was run?
A: 160 µM

Q: What about the “uncoupling P1/peptide/h” value of the same binder?
A: 0.31 P1/peptide/h

Q: Which “inhibition IC50” value does the source give for DGARLHYLF [peptide 22] here?
A: 820 µM

Q: What about the “uncoupling P1/peptide/h” value of the same binder?
A: 0.05 P1/peptide/h

Q: SSLRGHRWVY [peptide 17] was tested. Which “uncoupling P1/peptide/h” value did it give?
A: 0.07 P1/peptide/h

Q: For RHITSL [peptide 27], which “inhibition IC50” value is on record?
A: 440 µM

Q: And the “uncoupling P1/peptide/h” value?
A: 0.215 P1/peptide/h

Q: With RHRTLF [peptide 25] as the binder, how does the “inhibition IC50” value read?
A: 530 µM

Q: What about the “uncoupling P1/peptide/h” value of the same binder?
A: 0.23 P1/peptide/h

Q: For RHYLLF [peptide 26], which “inhibition IC50” value is on record?
A: 300 µM

Q: And the “uncoupling P1/peptide/h” value?
A: 0.29 P1/peptide/h
